Reduction of IL-12/IL-18-induced IFNγ production in human PBMC cultures by IL-18BP (24 h), reduction of IL-12/IL-18-induced IL-6 release in human PBMC cultures by IL-18BP (24 h) and Kd data for two substances are collected here from article PMC8018910.

pKd: −log10 of the molar value.

Assay [1] deals with Human IL-18 (human) (UniProt Q14116).
Assay [2] shares this target. Particulars: cited from earlier work.

Human IL-18 (human), sequence (Q14116 37-193): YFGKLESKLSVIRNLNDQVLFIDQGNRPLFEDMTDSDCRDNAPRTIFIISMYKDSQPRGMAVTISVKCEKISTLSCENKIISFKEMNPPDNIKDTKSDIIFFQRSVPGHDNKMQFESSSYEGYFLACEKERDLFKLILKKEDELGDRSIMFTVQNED
Clinical-grade recombinant human IL-18BP, sequence (O95998 31-194): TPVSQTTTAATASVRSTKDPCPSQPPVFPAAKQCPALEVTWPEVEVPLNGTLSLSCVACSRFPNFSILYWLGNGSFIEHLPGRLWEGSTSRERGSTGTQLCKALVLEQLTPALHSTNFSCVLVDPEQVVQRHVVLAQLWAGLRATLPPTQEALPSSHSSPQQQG
IL-18BP, sequence (O95998 31-194): as above

In the assay with Human IL-18 (human) [1], “Clinical-grade recombinant human IL-18BP (from UniProt O95998 31-194) (natural protein)” returned a reduction of IL-12/IL-18-induced IFNγ production in human PBMC cultures by IL-18BP (24 h) of 95% and a reduction of IL-12/IL-18-induced IL-6 release in human PBMC cultures by IL-18BP (24 h) of 85%.
The term pKd denotes the Kd on a negative log10 scale, so that one unit is a factor of ten. Consider IL-18BP (from UniProt O95998), for which the pKd with Human IL-18 (human) [2] was 9.30.
